Measured values reported in article PMC2175253.

Columns and labels:
Test in all cases: two-hybrid
[1] = target: nectin-2α cytoplasmic region (pBTM116-HA-nectin-2α-CP) (mouse)
[2] = target: α-catenin, full-length (pBTM116-HA-α-catenin) (mouse) (UniProt P26231)
[3] = target: α-catenin COOH-terminal half (pBTM116-HA-α-catenin-C) (mouse) (UniProt P26231)

Chain of nectin-2α cytoplasmic region (pBTM116-HA-nectin-2α-CP) (mouse) (P32507 387-467): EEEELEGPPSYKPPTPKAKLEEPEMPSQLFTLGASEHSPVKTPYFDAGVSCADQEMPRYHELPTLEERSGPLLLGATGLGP

β-galactosidase activity (units of β-galactosidase activity) [1]: 41 | β-galactosidase activity (units of β-galactosidase activity) [2]: < 1 | β-galactosidase activity (units of β-galactosidase activity) [3]: 30
Substance: l-afadin (pGAD424-HA-l-afadin), full-length, HA-tagged and fused with the GAL4 activation domain (from UniProt O35889-1 1-1829) (natural protein)
